The record followed here is PMC12049449, “EXO1 promotes the meiotic MLH1-MLH3 endonuclease through conserved interactions with MLH1, MSH4 and DNA” (Nature Communications, 2025).

Test [1] has as its target EXO1-FLAG, full length, as printed for Fig. 3h and Fig. 6d (UniProt Q9UQ84). The test can be described thus: pull-down (anti-FLAG immobilised EXO1-FLAG, Western blot quantification). Particulars: n = 3 independent experiments, parent: est. 1.0, read off a plot.
The target in test [2] is T1, EXO1-FLAG, full length, for Fig. 3h and Fig. 6d, Q9UQ84.
T1 chain: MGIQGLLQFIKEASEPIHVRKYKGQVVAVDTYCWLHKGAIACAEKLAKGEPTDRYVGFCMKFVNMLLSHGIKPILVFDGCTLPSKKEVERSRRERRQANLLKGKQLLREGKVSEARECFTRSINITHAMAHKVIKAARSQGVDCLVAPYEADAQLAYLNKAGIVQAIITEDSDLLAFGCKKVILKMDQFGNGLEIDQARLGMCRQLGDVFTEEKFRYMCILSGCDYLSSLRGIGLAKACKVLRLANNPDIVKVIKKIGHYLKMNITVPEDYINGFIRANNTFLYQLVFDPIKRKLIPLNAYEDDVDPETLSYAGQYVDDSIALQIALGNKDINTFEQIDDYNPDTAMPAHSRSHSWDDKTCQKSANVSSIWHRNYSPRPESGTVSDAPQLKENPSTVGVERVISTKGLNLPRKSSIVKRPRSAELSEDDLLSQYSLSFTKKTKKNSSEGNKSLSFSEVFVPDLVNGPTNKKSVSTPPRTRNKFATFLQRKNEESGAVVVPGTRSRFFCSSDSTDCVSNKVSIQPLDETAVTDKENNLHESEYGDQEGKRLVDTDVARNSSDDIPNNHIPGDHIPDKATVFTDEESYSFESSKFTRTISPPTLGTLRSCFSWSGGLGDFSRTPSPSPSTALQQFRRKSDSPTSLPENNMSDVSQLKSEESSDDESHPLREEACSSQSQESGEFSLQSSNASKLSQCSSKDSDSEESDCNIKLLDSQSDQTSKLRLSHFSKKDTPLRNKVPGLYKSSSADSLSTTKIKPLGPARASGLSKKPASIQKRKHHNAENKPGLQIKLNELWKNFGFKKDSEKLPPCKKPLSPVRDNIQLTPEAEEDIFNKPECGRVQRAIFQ
The test is described as above. Particulars: chain shown with the change; n = 3 independent experiments; p < 0.0001 vs WT; parent: est. 1.0; read off a plot.

A further test deals with T2, Human MutLγ (MLH1-MLH3) (human, UniProt P40692 1-756; Q9UHC1 1-1453).
T2 construct: MLH1, human, from pFB-FLAG-hMLH1co; MLH3, human, from pFB-His-MBP-hMLH3co; The methods say that the MBP tag was cleaved with PreScission protease; also called FLAG-MLH1 and MBP-MLH3; FLAG-MLH1-MBP-MLH3; source: Sf9, purified (amylose resin, M2 anti-FLAG resin); not shown: FLAG, N-terminal, kept; MBP, N-terminal, kept
The test can be described thus: pull-down; MutLγ (bait, 1 μg) held by anti-MLH1 antibody on protein G magnetic beads; EXO1-FLAG variants (prey, 1 μg) added; 25 mM Tris-HCl pH 7.5, 3 mM EDTA, 1 mM DTT, 20 μg/ml BSA, 50 mM NaCl, 4 °C, 1 h; washes with 100 mM NaCl, 0.05% Triton X-100; Western blot. The conditions noted are these: both partners purified. On the technique in general: In western blotting, separated proteins are transferred to a membrane and probed.

Changes are numbered by the printed parent chain. In names and notes the source's numbering stands.

Turning to “Human MutSγ (MSH4-MSH5) (from UniProt O15457;O43196) MSH4:F225E”, in test [1] (p = 0.22 vs WT), the ratio to parent was determined as 0.66 arb. units.

For the molecule “Human MutSγ (MSH4-MSH5) (from UniProt O15457;O43196) MSH4:F225E; MSH4:F288E”, in test [1] (p = 0.005 vs WT), the ratio to parent was 0.2 arb. units.

Take “Human MutSγ (MSH4-MSH5) (from UniProt O15457;O43196) MSH4:F288E”: in test [1] (p = 0.19 vs WT), the ratio to parent amounted to 0.73 arb. units.

B1: Human MutSγ (MSH4-MSH5), O15457;O43196 MSH4:T238E; MSH4:Y244D; MSH4:F288E (protein)
chain 1: MLRPEISSTSPSAPAVSPSSGETRSPQGPRYNFGLQETPQSRPSVQVVSASTCPGTSGAAGDRSSSSSSLPCPAPNSRPAQGSYFGNKRAYAENTVASNFTFGASSSSARDTNYPQTLKTPLSTGNPQRSGYKSWTPQVGYSASSSSAISAHSPSVIVAVVEGRGLARGEIGMASIDLKNPQIILSQFADNTTYAKVITKLKILSPLEIIMSNTACAVGNSTKLFTLITENFKNVNFETIQRKDFNETKGLEYIEQLCIAEFSTVLMEVQSKYYCLAAVAALLKYVEEIQNSVYAPKSLKICFQGSEQTAMIDSSSAQNLELLINNQDYRNNHTLFGVLNYTKTPGGSRRLRSNILEPLVDIETINMRLDCVQELLQDEELFFGLQSVISRFLDTEQLLSVLVQIPKQDTVNAAESKITNLIYLKHTLELVDPLKIAMKNCNTPLLRAYYGSLEDKRFGIILEKIKTVINDDARYMKGCLNMRTQKCYAVRSNINEFLDIARRTYTEIVDDIAGMISQLGEKYSLPLRTSFSSARGFFIQMTTDCIALPSDQLPSEFIKISKVKNSYSFTSADLIKMNERCQESLREIYHMTYMIVCKLLSEIYEHIHCLYKLSDTVSMLDMLLSFAHACTLSDYVRPEFTDTLAIKQGWHPILEKISAEKPIANNTYVTEGSNFLIITGPNMSGKSTYLKQIALCQIMAQIGSYVPAEYSSFRIAKQIFTRISTDDDIETNSSTFMKEMKEIAYILHNANDKSLILIDELGRGTNTEEGIGICYAVCEYLLSLKAFTLFATHFLELCHIDALYPNVENMHFEVQHVKNTSRNKEAILYTYKLSKGLTEEKNYGLKAAEVSSLPPSIVLDAKEITTQITRQILQNQRSTPEMERQRAVYHLATRLVQTARNSQLDPDSLRIYLSNLKKKYKEDFPRTEQVPEKTEE
chain 2: MASLGANPRRTPQGPRPGAASSGFPSPAPVPGPREAEEEEVEEEEELAEIHLCVLWNSGYLGIAYYDTSDSTIHFMPDAPDHESLKLLQRVLDEINPQSVVTSAKQDENMTRFLGKLASQEHREPKRPEIIFLPSVDFGLEISKQRLLSGNYSFIPDAMTATEKILFLSSIIPFDCLLTVRALGGLLKFLGRRRIGVELEDYNVSVPILGFKKFMLTHLVNIDQDTYSVLQIFKSESHPSVYKVASGLKEGLSLFGILNRCHCKWGEKLLRLWFTRPTHDLGELSSRLDVIQFFLLPQNLDMAQMLHRLLGHIKNVPLILKRMKLSHTKVSDWQVLYKTVYSALGLRDACRSLPQSIQLFRDIAQEFSDDLHHIASLIGKVVDFEGSLAENRFTVLPNIDPEIDEKKRRLMGLPSFLTEVARKELENLDSRIPSCSVIYIPLIGFLLSIPRLPSMVEASDFEINGLDFMFLSEEKLHYRSARTKELDALLGDLHCEIRDQETLLMYQLQCQVLARAAVLTRVLDLASRLDVLLALASAARDYGYSRPRYSPQVLGVRIQNGRHPLMELCARTFVPNSTECGGDKGRVKVITGPNSSGKSIYLKQVGLITFMALVGSFVPAEEAEIGAVDAIFTRIHSCESISLGLSTFMIDLNQVAKAVNNATAQSLVLIDEFGKGTNTVDGLALLAAVLRHWLARGPTCPHIFVATNFLSLVQLQLLPQGPLVQYLTMETCEDGNDLVFFYQVCEGVAKASHASHTAAQAGLPDKLVARGKEVSDLIRSGKPIKPVKDLLKKNQMENCQTLVDKFMKLDLEDPNLDLNVFMSQEVLPAATSIL
Turning to B1, the ratio to parent in test [2] stood at 0.08 arb. units.

B2: Nuclease-deficient human EXO1 (D173A)-FLAG, full length (enzyme, UniProt Q9UQ84 1-846, looked up)
chain: T1 chain with D173A
notes: EXO1, human, from pFB-MBP-PP-EXO1(D173A)-1xFLAG; last residue at position 846; also called nuclease-dead EXO1 (D173A); source: Sf9, purified (amylose resin, PreScission cleavage, FLAG M2 resin); not shown: MBP, N-terminal, cleaved; FLAG, C-terminal, kept
For the molecule B2, the binding result with Human MutLγ (MLH1-MLH3) is listed as “binds”.

B3: EXO1 (D173A I403E)-FLAG (enzyme, human, UniProt Q9UQ84 1-846, looked up)
chain: T1 chain with D173A, I403E
notes: EXO1, human, derivative of pFB-MBP-PP-EXO1(D173A)-1xFLAG; also called EXO1 (I403E); source: Sf9, purified (amylose resin, PreScission cleavage, FLAG M2 resin); not shown: MBP, N-terminal, cleaved; FLAG, C-terminal, kept
B3: in the test with Human MutLγ (MLH1-MLH3), the binding result was “binds”.

B4: EXO1 (D173A MIP)-FLAG (F506A and F507A in the MIP motif) (enzyme, human, UniProt Q9UQ84 1-846, looked up)
chain: T1 chain with D173A, F506A, F507A
notes: EXO1, human, derivative of pFB-MBP-PP-EXO1(D173A)-1xFLAG; also called EXO1 MIP mutants; MIP mutations; source: Sf9, purified (amylose resin, PreScission cleavage, FLAG M2 resin); not shown: MBP, N-terminal, cleaved; FLAG, C-terminal, kept
On to B4, for which, in the test with Human MutLγ (MLH1-MLH3), the binding result is recorded as “binds”.
